Legend:
GP73 peptide: […] = biological target: T1, GP73 peptide: […] (Homo sapiens, UniProt Q8NBJ4); assay: Biacore surface plasmon resonance, data fit for 1:1 binding; conditions: Biacore 1:1 binding fit, GP73 peptide SSRSVDLQTRIMELEGRVRR
T1 construct: GP73 peptide: […]
Method: In one embodiment, Kd is measured using surface plasmon resonance assays using a BIACORE®-2000 or a BIACORE®-3000 (BIAcore, Inc., Piscataway, N.J.) at 25° C. with immobilized antigen CM5 chips at […] response units (RU). Briefly, carboxymethylated dextran biosensor chips (CM5, BIACORE, Inc.) are activated with N-ethyl-N′-(3-dimethylaminopropyl) carbodiimide hydrochloride (EDC) and N-hydroxysuccinimide (NHS) according to the supplier's instructions. Antigen is diluted with 10 mM sodium acetate, pH 4.8, to 5 μg/ml (−0.2 μM) before injection at a flow rate of 5 μl/minute to achieve approximately 10 response units (RU) of coupled protein. Following the injection of antigen, 1 M ethanolamine is injected to block unreacted groups. For kinetics measurements, two-fold serial dilutions of antibody (0.58 nM to 200 nM) are injected in PBS with 0.05% polysorbate 20 (TWEEN-20™) surfactant (PEST) at 25° C. at a flow rate of approximately 25 μl/min. Association rates (kon) and dissociation rates (koff) are calculated using a simple one-to-one Langmuir binding model (BIACORE® T100 Evaluation Software) by simultaneously fitting the association and dissociation sensorgrams. The equilibrium dissociation constant (Kd) is calculated as the ratio koff/kon. See, e.g., Chen et al., J. Mol. Biol. 293:865-881 (1999). If the on-rate exceeds […] s^−1 by the surface plasmon resonance assay above, then the on-rate can be determined by using a fluorescent quenching technique that measures the increase or decrease in fluorescence emission intensity (excitation=295 nm; emission=340 nm, 16 nm band-pass) at 25° C. of a 20 nM anti-antigen antibody in PBS, pH 7.2, in the presence of increasing concentrations of antigen as measured in a spectrometer, such as a stop-flow equipped spectrophometer (Aviv Instruments) or a 8000-series SLM-AMINCO™ spectrophotometer (ThermoSpectronic) with a stirred cuvette.

[1] = biological target: T2, Furin cleavage of recombinant GP73-HIS (Homo sapiens, UniProt Q8NBJ4); assay: Furin cleavage of GP73-HIS depending on antibody binding (capture ELISA); type: biochemical; conditions: 3 U and 1.5 U of Furin; 2 hours at 30° C.
T2 construct: purchased Biolegend
T2 sequence (Q8NBJ4 36-401 limits assumed): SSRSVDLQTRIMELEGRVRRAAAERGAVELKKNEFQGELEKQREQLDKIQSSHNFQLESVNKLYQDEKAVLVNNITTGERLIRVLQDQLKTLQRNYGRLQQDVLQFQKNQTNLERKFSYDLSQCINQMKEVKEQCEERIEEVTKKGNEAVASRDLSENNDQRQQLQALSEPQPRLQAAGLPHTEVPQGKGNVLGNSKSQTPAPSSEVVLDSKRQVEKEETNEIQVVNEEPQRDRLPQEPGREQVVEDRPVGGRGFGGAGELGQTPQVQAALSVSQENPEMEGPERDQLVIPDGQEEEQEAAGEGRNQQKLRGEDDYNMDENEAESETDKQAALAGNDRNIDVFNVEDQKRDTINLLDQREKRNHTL
Excerpt: Measurements of Furin cleavage of GP73 using a range from 0 units to 3 units of Furin are depicted.
Testing of Furin cleavage exploits the fact that antibodies G2-1 and G2-2 bind GP73 N-terminal of or at the furin cleavage site 56R whereas recombinant GP73 with C-terminal HIS tag (GP73-HIS) is detected by anti HIS antibody at the C-terminus of GP73. Plate bound anti human IgG can capture G2-1 or G2-2, which binds GP73-HIS. If furin cleavage occurs in a setting where G2-1 or G2-2 have already bound to GP73-HIS, only N-terminal part of GP73 will reside at the G2 antibodies. In contrast, if furin cleavage is hindered by G2 antibodies, GP73-HIS can be detected by an anti HIS antibody.
Furin cleavage was carried out in 1.5 ml tubes. To test if G2 antibodies can hinder furin cleavage recombinant GOLPH-HIS protein (Biolegend) and G2-2 or G2-1 was incubated for 2 hours in 100 mM HEPES and 1 mM CaCl2 buffer pH 7.5 to allow antibody binding to GP73. […]
From each reaction 2×100 ul were transferred to wells of a 96 well plate that had been coated over night with anti human IgG and was blocked with 1% gelatine in PBS. After one hour incubation at room temperature the plate was washed, incubated with anti HIS-hrp antibody for one hour, washed again, incubated with a chromogenic substrate (TMB Amersham) to detect peroxidase, stopped and read at 450 nm.

B1: G2-2: scFv clone with human IgG1 heavy and human Igk light constant regions; VH/VL SEQ ID NO: 2 and 3; binds rGP73 AA 36-55 (antibody, V domains shown)
VH: EVQLLQSGGGVVQPGRSLRLSCAASGFTFSSYGMSWVRQAPGKGLEWVAVISYDGSNKYYADSVKGRFTISRDNSKNTLYLQMNSLRAEDTAVYYCAREGSAGMDVWGQGTTVTVSS
VL: DIQMTQPSSLSASPGASASLTCTLRSDISVGFHRIYWYQQKPGSPPQYLLRYKSDSDKQQGSGVPSRFSGSKDASANAGILLISGLQSDDEADYYCVIWHTSGVVFGGGTKVEIK
modifications: human IgG1 and Igk constant regions not cited; G2-2 heavy chain variable region (VH); G2-2 light chain variable region (VL)
B1 was tested, and the “koff, measurement 1 + 2 mean” value (GP73 peptide: […]) was 0.001108 s⁻¹, the “kon, measurement 1 + 2 mean” value (GP73 peptide: […]) was 260200 M⁻¹ s⁻¹ and the Kd (GP73 peptide: […]; read-out: Kd, measurement 1 + 2 mean) was 4.29 nM. The “Furin cleavage of GP73 after preincubation with antibody” value [1] was “significant reduction in Furin cleavage”.
